Reference: the supplement of paper PMC10065799, “High-throughput profiling of sequence recognition by tyrosine kinases and SH2 domains using bacterial peptide display” (eLife, 2023)

Columns and labels:
c-Src SH2 = experiment: SH2 binding enrichment of the phosphorylated peptide, bacterial display (enrichment ratio); higher = better substrate or ligand; peptides without Tyr show the background
Grb2 SH2 = Grb2 SH2 (UniProt P62993); experiment: as above
SHP2-C SH2 = experiment: as above
MERTK = MERTK (UniProt Q12866); experiment: phosphorylation enrichment, bacterial display (enrichment ratio); higher = better substrate or ligand; peptides without Tyr show the background
Fer (mouse) = experiment: as above
c-Abl (mouse) = experiment: as above
c-Src = experiment: as above
FGFR1 = FGFR1 (UniProt P11362); experiment: as above
EPHB1 = EPHB1 (UniProt P54762); experiment: as above
Fyn = Fyn (UniProt P06241); experiment: as above
Hck = Hck (UniProt P08631); experiment: as above
EPHB2 = EPHB2 (UniProt P29323); experiment: as above
AncSZ = experiment: as above
Fes = Fes (UniProt P07332); experiment: as above
FGFR3 = FGFR3 (UniProt P22607); experiment: as above
Jak2 = Jak2 (UniProt O60674); experiment: as above
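Throughout, for SH2 binding enrichment of the phosphorylated peptide, bacterial display: peptide library displayed on the E. coli surface as eCPX fusions, selected cells deep-sequenced, score is each peptide's frequency after selection divided by its frequency in the input.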
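Throughout, for phosphorylation enrichment, bacterial display: 11-residue human phosphosite peptides and single-mutation variants displayed on the E. coli surface, counted by deep sequencing, each peptide's frequency after selection divided by its frequency in the unselected input library; frequency after pTyr selection over input frequency; kinase dosed for 20-30% of maximal phosphorylation in three min.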

Chain of Fyn (P06241 whole entry, looked up): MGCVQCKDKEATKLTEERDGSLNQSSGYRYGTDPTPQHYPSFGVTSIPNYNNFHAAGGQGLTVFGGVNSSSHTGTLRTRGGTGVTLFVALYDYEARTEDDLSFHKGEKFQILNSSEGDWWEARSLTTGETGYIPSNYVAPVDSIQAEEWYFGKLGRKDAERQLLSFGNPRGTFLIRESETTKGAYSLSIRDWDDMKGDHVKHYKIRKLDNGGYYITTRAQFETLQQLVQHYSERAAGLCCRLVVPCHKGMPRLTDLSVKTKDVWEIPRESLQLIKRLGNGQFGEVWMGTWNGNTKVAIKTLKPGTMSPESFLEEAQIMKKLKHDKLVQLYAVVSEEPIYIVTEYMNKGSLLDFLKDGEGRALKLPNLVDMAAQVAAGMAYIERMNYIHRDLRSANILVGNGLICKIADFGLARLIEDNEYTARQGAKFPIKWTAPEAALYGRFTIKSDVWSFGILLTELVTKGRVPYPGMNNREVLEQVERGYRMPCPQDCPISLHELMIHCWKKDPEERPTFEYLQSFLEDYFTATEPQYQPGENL
Chain of Fes (P07332 whole entry, looked up): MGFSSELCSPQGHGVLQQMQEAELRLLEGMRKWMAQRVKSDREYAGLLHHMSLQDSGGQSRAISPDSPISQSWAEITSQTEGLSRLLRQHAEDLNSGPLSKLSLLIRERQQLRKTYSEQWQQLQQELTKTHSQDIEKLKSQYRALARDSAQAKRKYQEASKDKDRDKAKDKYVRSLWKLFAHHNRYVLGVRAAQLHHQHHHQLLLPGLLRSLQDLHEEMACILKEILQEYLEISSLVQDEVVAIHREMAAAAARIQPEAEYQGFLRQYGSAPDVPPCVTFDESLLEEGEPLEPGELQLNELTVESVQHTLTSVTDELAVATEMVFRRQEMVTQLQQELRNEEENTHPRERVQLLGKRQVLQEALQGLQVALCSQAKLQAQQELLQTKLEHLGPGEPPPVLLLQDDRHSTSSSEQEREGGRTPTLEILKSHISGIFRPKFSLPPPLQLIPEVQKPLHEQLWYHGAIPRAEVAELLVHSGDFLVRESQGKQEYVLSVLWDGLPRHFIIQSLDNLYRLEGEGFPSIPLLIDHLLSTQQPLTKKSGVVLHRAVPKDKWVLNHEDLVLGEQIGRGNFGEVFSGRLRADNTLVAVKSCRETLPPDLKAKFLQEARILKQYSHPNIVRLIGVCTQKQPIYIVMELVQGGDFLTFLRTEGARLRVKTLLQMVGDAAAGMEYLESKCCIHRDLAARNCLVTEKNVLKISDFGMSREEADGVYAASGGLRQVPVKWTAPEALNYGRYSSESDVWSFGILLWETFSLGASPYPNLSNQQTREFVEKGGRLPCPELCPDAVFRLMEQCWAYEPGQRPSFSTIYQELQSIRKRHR
Chain of Jak2 (O60674 whole entry, looked up, the tested form may be a part): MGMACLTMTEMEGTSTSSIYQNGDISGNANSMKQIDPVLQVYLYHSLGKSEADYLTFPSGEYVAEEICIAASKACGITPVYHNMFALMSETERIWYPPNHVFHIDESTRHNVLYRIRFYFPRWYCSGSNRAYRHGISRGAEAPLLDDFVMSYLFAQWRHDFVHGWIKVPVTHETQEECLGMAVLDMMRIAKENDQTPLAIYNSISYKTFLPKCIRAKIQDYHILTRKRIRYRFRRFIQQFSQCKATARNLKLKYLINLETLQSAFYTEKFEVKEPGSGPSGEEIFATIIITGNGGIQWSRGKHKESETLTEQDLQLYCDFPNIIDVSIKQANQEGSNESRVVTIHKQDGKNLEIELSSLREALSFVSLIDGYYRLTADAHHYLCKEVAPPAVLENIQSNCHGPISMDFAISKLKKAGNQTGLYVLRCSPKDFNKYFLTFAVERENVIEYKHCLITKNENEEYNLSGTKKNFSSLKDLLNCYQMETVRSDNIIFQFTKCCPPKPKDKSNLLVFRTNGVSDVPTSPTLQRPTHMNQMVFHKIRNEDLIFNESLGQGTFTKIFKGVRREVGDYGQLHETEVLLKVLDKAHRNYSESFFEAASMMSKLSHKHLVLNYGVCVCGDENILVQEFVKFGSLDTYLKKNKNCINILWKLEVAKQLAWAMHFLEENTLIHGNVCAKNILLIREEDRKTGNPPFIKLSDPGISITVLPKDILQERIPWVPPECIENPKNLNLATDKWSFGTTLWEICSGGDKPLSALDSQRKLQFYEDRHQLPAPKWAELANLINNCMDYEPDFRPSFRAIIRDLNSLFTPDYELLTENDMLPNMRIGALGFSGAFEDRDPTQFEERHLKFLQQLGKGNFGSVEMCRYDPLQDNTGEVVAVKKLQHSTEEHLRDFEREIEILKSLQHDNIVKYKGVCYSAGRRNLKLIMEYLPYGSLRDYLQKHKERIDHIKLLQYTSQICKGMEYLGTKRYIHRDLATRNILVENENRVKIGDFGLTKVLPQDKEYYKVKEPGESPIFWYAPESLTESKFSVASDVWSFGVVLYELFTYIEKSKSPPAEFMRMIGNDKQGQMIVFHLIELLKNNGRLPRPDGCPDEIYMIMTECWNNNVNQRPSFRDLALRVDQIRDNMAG
Chain of FGFR1 (P11362 whole entry, looked up): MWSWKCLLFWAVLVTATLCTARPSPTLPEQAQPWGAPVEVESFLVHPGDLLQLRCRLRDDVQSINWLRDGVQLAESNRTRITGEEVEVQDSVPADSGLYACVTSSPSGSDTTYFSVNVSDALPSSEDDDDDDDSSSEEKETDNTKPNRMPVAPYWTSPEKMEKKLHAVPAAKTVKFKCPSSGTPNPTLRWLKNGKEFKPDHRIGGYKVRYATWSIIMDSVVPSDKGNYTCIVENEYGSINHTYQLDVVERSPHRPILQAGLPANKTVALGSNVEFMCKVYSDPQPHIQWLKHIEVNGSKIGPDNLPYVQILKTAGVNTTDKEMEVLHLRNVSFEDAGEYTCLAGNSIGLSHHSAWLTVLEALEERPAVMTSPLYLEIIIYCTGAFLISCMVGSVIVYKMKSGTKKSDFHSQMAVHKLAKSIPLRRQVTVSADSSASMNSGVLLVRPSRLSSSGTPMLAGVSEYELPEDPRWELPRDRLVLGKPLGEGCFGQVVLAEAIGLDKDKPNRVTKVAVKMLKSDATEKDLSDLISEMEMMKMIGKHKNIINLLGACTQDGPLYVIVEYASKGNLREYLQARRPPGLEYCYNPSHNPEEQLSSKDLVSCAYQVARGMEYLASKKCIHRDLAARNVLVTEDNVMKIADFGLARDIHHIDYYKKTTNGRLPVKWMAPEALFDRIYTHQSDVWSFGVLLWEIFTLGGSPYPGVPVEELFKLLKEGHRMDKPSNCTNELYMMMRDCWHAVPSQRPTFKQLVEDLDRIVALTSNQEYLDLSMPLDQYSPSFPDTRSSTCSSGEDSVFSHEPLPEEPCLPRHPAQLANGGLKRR
Chain of Grb2 SH2 (P62993 whole entry, looked up): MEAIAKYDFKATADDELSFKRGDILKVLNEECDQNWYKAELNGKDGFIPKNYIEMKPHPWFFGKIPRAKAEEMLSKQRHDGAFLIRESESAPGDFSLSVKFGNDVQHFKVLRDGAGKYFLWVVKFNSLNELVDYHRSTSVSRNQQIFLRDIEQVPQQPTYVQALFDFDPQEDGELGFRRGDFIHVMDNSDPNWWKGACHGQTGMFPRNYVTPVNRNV
Chain of Hck (P08631 whole entry, looked up): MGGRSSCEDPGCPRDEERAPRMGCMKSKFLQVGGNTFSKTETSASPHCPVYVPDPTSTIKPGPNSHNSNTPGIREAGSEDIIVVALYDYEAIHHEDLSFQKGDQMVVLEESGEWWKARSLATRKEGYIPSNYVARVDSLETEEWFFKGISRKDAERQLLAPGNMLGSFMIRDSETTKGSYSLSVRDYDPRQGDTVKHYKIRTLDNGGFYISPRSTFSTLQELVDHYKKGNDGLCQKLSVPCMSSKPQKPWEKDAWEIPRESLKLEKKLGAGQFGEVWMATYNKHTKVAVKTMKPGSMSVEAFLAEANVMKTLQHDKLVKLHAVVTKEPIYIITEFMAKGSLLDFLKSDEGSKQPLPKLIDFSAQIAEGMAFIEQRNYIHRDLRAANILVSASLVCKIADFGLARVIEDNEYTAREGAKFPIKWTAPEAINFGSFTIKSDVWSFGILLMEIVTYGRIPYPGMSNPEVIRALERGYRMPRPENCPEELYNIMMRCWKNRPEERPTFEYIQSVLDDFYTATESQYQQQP
Chain of EPHB1 (P54762 whole entry, looked up): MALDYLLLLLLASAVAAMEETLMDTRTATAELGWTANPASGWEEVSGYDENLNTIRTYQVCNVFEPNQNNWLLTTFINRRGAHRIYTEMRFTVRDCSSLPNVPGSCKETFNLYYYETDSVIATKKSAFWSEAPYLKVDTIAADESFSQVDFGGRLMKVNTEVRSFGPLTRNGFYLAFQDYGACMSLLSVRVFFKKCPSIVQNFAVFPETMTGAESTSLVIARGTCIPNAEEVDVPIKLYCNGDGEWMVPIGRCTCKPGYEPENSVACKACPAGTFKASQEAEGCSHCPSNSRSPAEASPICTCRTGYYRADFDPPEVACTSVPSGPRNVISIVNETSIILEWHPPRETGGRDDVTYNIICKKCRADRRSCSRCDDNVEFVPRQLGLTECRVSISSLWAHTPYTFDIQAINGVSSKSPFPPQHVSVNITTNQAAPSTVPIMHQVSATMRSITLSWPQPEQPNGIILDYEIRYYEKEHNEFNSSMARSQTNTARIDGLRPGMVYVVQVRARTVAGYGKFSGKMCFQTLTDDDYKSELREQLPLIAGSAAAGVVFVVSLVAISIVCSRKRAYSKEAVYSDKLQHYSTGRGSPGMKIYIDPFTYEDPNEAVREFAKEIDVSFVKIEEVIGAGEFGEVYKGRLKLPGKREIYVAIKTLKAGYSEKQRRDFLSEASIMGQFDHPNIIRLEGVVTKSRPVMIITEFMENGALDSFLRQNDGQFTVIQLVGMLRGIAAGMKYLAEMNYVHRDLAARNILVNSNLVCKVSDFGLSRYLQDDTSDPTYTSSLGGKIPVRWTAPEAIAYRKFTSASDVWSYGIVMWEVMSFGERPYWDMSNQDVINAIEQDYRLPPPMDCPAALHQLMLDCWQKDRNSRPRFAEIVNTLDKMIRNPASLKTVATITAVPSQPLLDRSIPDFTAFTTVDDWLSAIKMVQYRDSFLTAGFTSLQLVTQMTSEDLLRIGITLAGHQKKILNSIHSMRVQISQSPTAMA

| Sequence | SH2 binding enrichment (c-Src SH2) | SH2 binding enrichment (Grb2 SH2) | SH2 binding enrichment (SHP2-C SH2) | phosphorylation enrichment (MERTK) | phosphorylation enrichment (Fer (mouse)) | phosphorylation enrichment (c-Abl (mouse)) | phosphorylation enrichment (c-Src) | phosphorylation enrichment (FGFR1) | phosphorylation enrichment (EPHB1) | phosphorylation enrichment (Fyn) | phosphorylation enrichment (Hck) | phosphorylation enrichment (EPHB2) | phosphorylation enrichment (AncSZ) | phosphorylation enrichment (Fes) | phosphorylation enrichment (FGFR3) | phosphorylation enrichment (Jak2) |
| --- | --- | --- | --- | --- | --- | --- | --- | --- | --- | --- | --- | --- | --- | --- | --- | --- |
| DEEPPYRGPFC [SASH1_Y551] | 0.657 | 1.06 | 1.21 | 0.332 | 0.434 | 0.673 | 0.493 | 0.525 | 0.509 | 0.437 | 0.389 | 0.396 | 0.863 | 0.895 | 0.656 | 0.697 |
| KGPNVYKKTVN [REV3L_Y1156] | 0.529 | 0.633 | 0.606 | 0.362 | 0.429 | 0.492 | 0.546 | 0.448 | 0.307 | 0.313 | 0.414 | 0.31 | 0.456 | 0.581 | 0.391 | 0.5 |
| GAVGHYVLAER [HFE_Y342_M339V] | 2.88 | 0.634 | 0.851 | 0.573 | 0.363 | 0.46 | 0.503 | 0.449 | 0.395 | 0.47 | 0.454 | 0.415 | 0.865 | 0.711 | 1.23 | 0.453 |
| ENGPYYASYPP [GDAP2_Y488_T489A] | 0.632 | 0.729 | 0.773 | 6.92 | 1.29 | 3.72 | 5.28 | 2.69 | 1.64 | 6.13 | 3.82 | 4.76 | 1.09 | 0.735 | 2.01 | 0.662 |
| PPEFSYGLQTQ [SRA1_Y35_Q32E] | 0.601 | 1.06 | 0.601 | 0.428 | 0.453 | 0.661 | 0.486 | 0.568 | 0.565 | 0.446 | 0.416 | 0.802 | 0.724 | 1.09 | 0.772 | 0.997 |
| LVGTPYWMAPE [PAK5_Y608] | 0.673 | 0.76 | 1.58 | 0.856 | 0.573 | 0.694 | 2.71 | 2.09 | 0.775 | 0.683 | 0.459 | 0.437 | 0.91 | 1.15 | 1.84 | 1.14 |
| GLRSFYETSKM [MAGED2_Y449_YF] | 0.582 | 0.933 | 0.771 | 0.374 | 0.505 | 0.806 | 0.437 | 0.385 | 0.438 | 0.331 | 0.506 | 0.342 | 0.596 | 0.739 | 0.42 | 0.707 |
| GGFNNYGFGSD [HNRNPH3_Y159_N163S_YF] | 0.47 | 0.753 | 0.744 | 0.474 | 0.39 | 0.575 | 0.426 | 0.48 | 0.7 | 0.458 | 0.454 | 0.812 | 0.656 | 0.762 | 0.533 | 0.68 |
| SHSMRYFSTAV [HLA-C_Y31_D33S] | 0.423 | 0.752 | 0.64 | 0.425 | 0.435 | 0.578 | 0.441 | 0.657 | 0.431 | 0.459 | 0.452 | 0.452 | 0.719 | 0.763 | 0.569 | 0.625 |
| YGLQAYTKVKT [ALDH2_Y502_E504K] | 1.85 | 0.811 | 2.67 | 0.414 | 0.427 | 0.614 | 0.435 | 0.45 | 0.445 | 0.357 | 0.377 | 0.462 | 1.26 | 1.08 | 0.679 | 1.23 |
| ASTDYNKRGDF [PDHA1_Y243_Y243N] | 0.446 | 0.954 | 0.512 | 0.405 | 0.378 | 0.469 | 0.47 | 0.421 | 0.348 | 0.456 | 0.332 | 0.474 | 0.502 | 0.599 | 0.402 | 0.468 |
| GHEYIYVDRMQ [PDGFRB_Y581_P584R] | 0.746 | 0.878 | 0.859 | 0.48 | 0.472 | 0.607 | 2.62 | 5.2 | 0.796 | 1.94 | 1.44 | 0.546 | 0.891 | 0.695 | 3.24 | 0.644 |
| IKETHYMVDRC | 0.465 | 0.78 | 0.623 | 0.481 | 0.47 | 0.581 | 0.464 | 0.555 | 0.472 | 0.455 | 0.461 | 0.704 | 0.992 | 0.992 | 0.579 | 0.654 |
| GKSHIYFWTLE [EML2_Y230] | 0.548 | 0.902 | 0.713 | 0.669 | 0.496 | 0.818 | 0.577 | 0.8 | 0.588 | 0.513 | 0.538 | 0.539 | 1.22 | 1.3 | 1.07 | 1.3 |
| HPFNSYTFPRL [PAK5_Y316_S312P_YF] | 1 | 0.642 | 1.35 | 1.41 | 0.461 | 1.05 | 0.602 | 0.531 | 0.683 | 1.19 | 0.474 | 0.64 | 1.3 | 0.957 | 0.786 | 0.995 |
| PINEPYGDDLD [JUP_Y693_M697L] | 0.655 | 0.727 | 0.568 | 0.653 | 0.734 | 0.972 | 0.696 | 0.873 | 0.799 | 0.781 | 0.532 | 0.921 | 1.35 | 1.16 | 0.988 | 1.16 |
| KKLAEYGPQGR [CLCA1_Y147] | 0.546 | 0.901 | 0.631 | 0.379 | 0.316 | 0.473 | 0.358 | 0.364 | 0.376 | 0.408 | 0.36 | 0.366 | 0.428 | 0.519 | 0.361 | 0.441 |

| Sequence | SH2 binding enrichment (c-Src SH2) | SH2 binding enrichment (Grb2 SH2) | SH2 binding enrichment (SHP2-C SH2) | phosphorylation enrichment (MERTK) | phosphorylation enrichment (Fer (mouse)) | phosphorylation enrichment (c-Abl (mouse)) | phosphorylation enrichment (c-Src) | phosphorylation enrichment (FGFR1) | phosphorylation enrichment (EPHB1) | phosphorylation enrichment (Fyn) | phosphorylation enrichment (Hck) | phosphorylation enrichment (EPHB2) | phosphorylation enrichment (AncSZ) | phosphorylation enrichment (Fes) | phosphorylation enrichment (FGFR3) | phosphorylation enrichment (Jak2) |
| --- | --- | --- | --- | --- | --- | --- | --- | --- | --- | --- | --- | --- | --- | --- | --- | --- |
| LIGRRYDDPEV [HSPA9_Y128] | 0.822 | 0.674 | 0.5 | 0.889 | 0.809 | 1.25 | 1.27 | 0.643 | 1.11 | 0.836 | 0.707 | 1.63 | 2.69 | 2.17 | 0.9 | 1.35 |
| KGVDRYNPENL [EIF3K_Y21_I18V] | 0.465 | 0.643 | 0.592 | 0.402 | 0.311 | 0.392 | 0.397 | 0.308 | 0.35 | 0.415 | 0.437 | 0.648 | 0.502 | 0.466 | 0.372 | 0.428 |
| SEPDLYYDPRG [PKP1_Y160_C161Y] | 0.524 | 0.864 | 0.679 | 7.05 | 1.65 | 3.09 | 4.93 | 10.8 | 14.3 | 5.41 | 8.75 | 13.6 | 2.91 | 1.16 | 8.64 | 3.35 |
| YRDALYKFMVD [PHEX_Y250] | 0.572 | 0.846 | 0.665 | 1.2 | 0.678 | 0.803 | 0.624 | 0.869 | 1.24 | 0.61 | 0.712 | 0.797 | 1.14 | 1.33 | 1.25 | 1.11 |
| SDVWSYGVTMW [ZAP70_Y525] | 0.614 | 0.84 | 0.576 | 0.502 | 0.63 | 0.979 | 0.54 | 0.557 | 0.688 | 0.477 | 0.695 | 0.695 | 1.15 | 1.39 | 0.847 | 1.26 |
| CPFNLYAAQLS [HGD_Y40_E42A_YF] | 0.537 | 0.726 | 0.811 | 1.7 | 0.76 | 0.874 | 0.961 | 0.573 | 1.79 | 0.648 | 1.09 | 1.24 | 1.2 | 1.29 | 0.816 | 1.02 |
| QKMADYSNKLY [PDPR_Y104] | 0.447 | 0.776 | 0.604 | 0.535 | 0.435 | 0.555 | 0.509 | 0.436 | 0.492 | 0.515 | 0.692 | 0.455 | 0.61 | 0.717 | 0.735 | 0.579 |
| RSAGKDDVFLI [MECP2_Y120_Y120D_YF] | 0.481 | 1.01 | 0.861 | 0.494 | 0.511 | 0.872 | 0.601 | 0.629 | 0.646 | 0.557 | 0.683 | 0.75 | 0.842 | 1.16 | 0.894 | 0.706 |
| TIMTNYNPNYC [ALK_Y1092_D1091N] | 0.591 | 1.12 | 0.715 | 0.407 | 0.46 | 0.558 | 0.45 | 0.545 | 0.619 | 0.565 | 0.548 | 0.5 | 0.758 | 0.901 | 0.549 | 0.639 |
| TEDPEYDVQSK [PTCHD3_Y335] | 0.557 | 0.913 | 0.871 | 0.358 | 0.564 | 0.679 | 0.435 | 0.689 | 0.521 | 0.616 | 0.669 | 0.661 | 1.18 | 1.01 | 0.738 | 0.936 |
| QKKEEYKMALY [F8_Y1990_R1985Q] | 0.48 | 0.629 | 0.565 | 0.693 | 0.895 | 0.902 | 0.978 | 0.527 | 0.984 | 0.603 | 0.496 | 0.626 | 1.72 | 1.41 | 0.582 | 1.63 |
| GIVKAYFVRAR [AIPL1_Y267_YF] | 0.506 | 0.826 | 0.756 | 0.512 | 0.463 | 0.669 | 0.467 | 0.487 | 0.445 | 0.488 | 0.503 | 0.434 | 1.11 | 0.991 | 0.558 | 1.13 |
| FSQQTYFRVSN [ABCD1_Y180_YF] | 1.09 | 0.887 | 1.16 | 0.41 | 0.415 | 0.625 | 0.931 | 1.23 | 0.654 | 0.435 | 0.749 | 0.564 | 0.902 | 0.723 | 1.19 | 3.23 |
| AVPSLYASGRT [ACTA1_Y145_L142P] | 0.415 | 0.818 | 0.643 | 0.473 | 0.451 | 0.538 | 0.451 | 0.405 | 0.452 | 0.393 | 1.74 | 0.433 | 0.65 | 0.57 | 0.434 | 0.523 |
| EKKQTYGSCRK [LACTB_Y473_R469K] | 0.867 | 1.23 | 0.838 | 0.366 | 0.351 | 0.581 | 0.43 | 0.395 | 0.415 | 0.37 | 0.391 | 0.356 | 0.533 | 0.685 | 0.488 | 0.484 |
| AQVDTYCRHNY [HLA-DRB1_Y107_A103Q] | 0.485 | 1.05 | 0.707 | 0.447 | 0.517 | 0.693 | 0.369 | 0.512 | 0.536 | 0.549 | 0.523 | 0.47 | 0.752 | 0.866 | 0.679 | 0.764 |
